Source: PMC6769508, “Cooperative Binding of KaiB to the KaiC Hexamer Ensures Accurate Circadian Clock Oscillation in Cyanobacteria” (International Journal of Molecular Sciences, 2019)
Where “and” joins values, the source holds several entries; their conditions need not be identical. Equal values may be shown once.

B1: TeKaiB, wild-type T. elongatus KaiB (natural protein, Thermosynechococcus elongatus, UniProt Q79V61 1-108, looked up)
chain: MAPLRKTYVLKLYVAGNTPNSVRALKTLNNILEKEFKGVYALKVIDVLKNPQLAEEDKILATPTLAKVLPPPVRRIIGDLSNREKVLIGLDLLYEEIGDQAEDDLGLE
notes: KaiB, Thermosynechococcus elongatus (strain BP-1), wild type; source: E. coli, GST-tagged, purified after cleavage of the GST-tag
B2: TeKaiBDD, TeKaiB with the DD mutation (Arg23 and Lys26 to aspartate) (natural protein, Thermosynechococcus elongatus, UniProt Q79V61 1-108, looked up)
chain: MAPLRKTYVLKLYVAGNTPNSVDALDTLNNILEKEFKGVYALKVIDVLKNPQLAEEDKILATPTLAKVLPPPVRRIIGDLSNREKVLIGLDLLYEEIGDQAEDDLGLE
notes: KaiB, Thermosynechococcus elongatus (strain BP-1), Arg23 and Lys26 substituted with aspartate; Named only in the SEC methods; source: E. coli, GST-tagged, purified after cleavage of the GST-tag
B3: TeKaiCDD, T. elongatus KaiC mutant with Ser431 and Thr432 substituted by aspartate residues (natural protein, Thermosynechococcus elongatus, UniProt Q79V60 1-518, looked up)
chain: MTNLPEHQSSPTEQSSAEVKKIPTMIEGFDDISHGGLPQGRTTLVSGTSGTGKTLFAVQFLYNGITIFNEPGIFVTFEESPQDIIKNALSFGWNLQSLIDQGKLFILDASPDPDGQEVAGDFDLSALIERIQYAIRKYKATRVSIDSVTAVFQQYDAASVVRREIFRLAFRLKQLGVTTIMTTERVDEYGPVARFGVEEFVSDNVVILRNVLEGERRRRTVEILKLRGTTHMKGEYPFTINNGINIFPLGAMRLTQRSSNVRVSSGVKTLDEMCGGGFFKDSIILATGATGTGKTLLVSKFLETGCQQGERALLFAYEESRAQLSRNASSWGIDFEELERRGLLRIICAYPESAGLEDHLQIIKSEIADFKPSRVAIDSLSALARGVSNNAFRQFVIGVTGFAKQEEITGFFTNTTDQFMGSNSITESHIDDITDTILLLQYVEIRGEMSRAINVFKMRGSWHDKGIREYVITEKGAEIRDSFRNFEGIISGTPTRISVDEKTELARIAKGMQDLESE
notes: KaiC, Thermosynechococcus elongatus (strain BP-1), Ser431 and Thr432 substituted by aspartate (mimics the fully phosphorylated form); Seen as a homohexamer by native MS; also called TeKaiCDD homohexamer; source: E. coli, GST-tagged, purified after cleavage of the GST-tag
B4: TeKaiB_(10–108), N-terminal truncated mutant of T. elongatus KaiB (domain or fragment, Thermosynechococcus elongatus, UniProt Q79V61 10-108, looked up)
chain: LKLYVAGNTPNSVRALKTLNNILEKEFKGVYALKVIDVLKNPQLAEEDKILATPTLAKVLPPPVRRIIGDLSNREKVLIGLDLLYEEIGDQAEDDLGLE
notes: KaiB, Thermosynechococcus elongatus (strain BP-1), residues 10-108 (N-terminal segment deleted); source: E. coli, GST-tagged, purified after cleavage of the GST-tag
B5: TeKaiB_(10–108/DD), TeKaiB_(10–108) with Arg23 and Lys26 replaced with aspartate (domain or fragment, Thermosynechococcus elongatus, UniProt Q79V61 10-108, looked up)
chain: LKLYVAGNTPNSVDALDTLNNILEKEFKGVYALKVIDVLKNPQLAEEDKILATPTLAKVLPPPVRRIIGDLSNREKVLIGLDLLYEEIGDQAEDDLGLE
notes: KaiB, Thermosynechococcus elongatus (strain BP-1), residues 10-108, Arg23 and Lys26 substituted with aspartate; source: E. coli, GST-tagged, purified after cleavage of the GST-tag

Experiments:
[1] = target: the molecule itself; assay: SEC; Superdex 200 increase; 20 mM Tris-HCl (pH 8.0), 150 mM NaCl, 5 mM MgCl2, 0.5 mM EDTA, 1 mM DTT; TeKaiB or TeKaiBDD in the absence of KaiC
[2] = target: the molecule itself; assay: native MS; TeKaiCDD (20 µM) titrated with KaiB or SasA proteins, incubated at 37 °C for 6 h, buffer-exchanged into 150 mM ammonium acetate, pH 6.8; nanoflow ESI
[3] = target: B3; assay: as above; conditions: both partners purified

Binder | stoichiometry N [1] | stoichiometry N [3] | also measured
B1 | 4 | – | –
B2 | 4 | – | –
B3 | – | – | stoichiometry N [2]: 6
B4 | – | 6 binder chains per KaiC hexamer | –
B5 | – | 1 binder chains per KaiC hexamer and 3 binder chains per KaiC hexamer and 2 binder chains per KaiC hexamer | –
